# Laboratory results reported in US20240124615A1 (HEFEI TG IMMUNOPHARMA, published 2024).
# Residue numbers refer to the chain shown, from its start.
# B1: CD3xB7H6-11 bispecific antibody (bispecific antibody, human IgG1, L234A L235A)
# chain 1: not shown
# chain 2: DIVLTQTPLSLSVTPGQPASISCKASQSVDYDGDSYMNWYLQKPGQPPQLLIYAASTLHSGVPDRFSGSGSGTDFTLKISRVEAEDVGVYYCQQSKEDPRTFGQGTKLEIKGGGGSGGGGSGGGGSEVQLVQSGAEVKKPGASVKVSCKASGYTFTDYNMDWVRQAPGQGLEWIGDINPNNGGTLYNQKFRGRVTLTVDKSISTAYMELSRLRSDDTAVYYCARSEVFYGNYADYWGQGTTVTVSSEPKSCDKTHTCPPCPAPEAAGGPSVFLFPPKPKDTLMISRTPEVTCVVVDVSHEDPEVKFNWYVDGVEVHNAKTKPREEQYNSTYRVVSVLTVLHQDWLNGKEYKCKVSNKALPAPIEKTISKAKGQPREPQVCTLPPSRDELTKNQVSLSCAVKGFYPSDIAVEWESNGQPENNYKTTPPVLDSDGSFFLVSKLTVDKSRWQQGNVFSCSVMHEALHNHYTQKSLSLSPGK
# notes: Heterodimer of two scFv-Fc units, knob-into-hole human IgG1 Fc; name formed by analogy with CD3xB7H6-14
# B2: CD3xB7H6-16 bispecific antibody (bispecific antibody, human IgG1, L234A L235A)
# chain 1: not shown
# chain 2: B1 chain 2 with V62I, Q169K
# notes: as for B1
# B3: CD3xB7H6-15 bispecific antibody (bispecific antibody, human IgG1, L234A L235A)
# chain 1: not shown
# chain 2: B1 chain 2 with V62I
# notes: as for B1
# B4: CD3xB7H6-12 bispecific antibody (bispecific antibody, human IgG1, L234A L235A)
# chain 1: not shown
# chain 2: B1 chain 2 with Q169K
# notes: as for B1
# B5: CD3xB7H6-14 bispecific antibody (bispecific antibody, human IgG1, L234A L235A)
# chain 1: not shown
# chain 2: B1 chain 2 with V62I, K200T
# notes: Heterodimer of two scFv-Fc units, knob-into-hole human IgG1 Fc; lead molecule; also called CD3kB7H6-14
# B6: CD3xB7H6-13 bispecific antibody (bispecific antibody, human IgG1, L234A L235A)
# chain 1: not shown
# chain 2: B1 chain 2 with V62I, I174M, L196M, K200T
# notes: as for B1
# B7: CD3xB7H6-17 bispecific antibody (bispecific antibody, human IgG1, L234A L235A)
# chain 1: not shown
# chain 2: DIVLTQSPVSLAVPLGQRATISCKASQSVDYDGDSYMNWYQQKPGQPPKLLIYAASTLHSGIPVRFSGSGSGTDFTLNIHPVEEEDAASYYCQQSKEDPRTFGGGTKLEIKGGGGSGGGGSGGGGSEVLLQQSGPEVVKPGASVKITCKASGYTFTDYNMDWVKQSHGKSLEWIGDINPNNAGTLYNQKFRGRVTLIVDKSSSTAYMELRSLTSDDTAVYYCARSEVFYGNYADYWGQGTTLTVSSEPKSCDKTHTCPPCPAPEAAGGPSVFLFPPKPKDTLMISRTPEVTCVVVDVSHEDPEVKFNWYVDGVEVHNAKTKPREEQYNSTYRVVSVLTVLHQDWLNGKEYKCKVSNKALPAPIEKTISKAKGQPREPQVCTLPPSRDELTKNQVSLSCAVKGFYPSDIAVEWESNGQPENNYKTTPPVLDSDGSFFLVSKLTVDKSRWQQGNVFSCSVMHEALHNHYTQKSLSLSPGK
# notes: as for B1
# B8: CD3xB7H6-18 bispecific antibody (bispecific antibody, human IgG1, L234A L235A)
# chain 1: not shown
# chain 2: B7 chain 2 with G33A, A182G
# notes: as for B1
# Biological target: T1, Human B7H6 (ACRO biosystems, cat. No. B76-H52H8) (human, UniProt Q68D85 25-262)
# T1 construct: Bought antigen; also called B7H6 antigen; human B7H6 protein
# T1 sequence (looked up): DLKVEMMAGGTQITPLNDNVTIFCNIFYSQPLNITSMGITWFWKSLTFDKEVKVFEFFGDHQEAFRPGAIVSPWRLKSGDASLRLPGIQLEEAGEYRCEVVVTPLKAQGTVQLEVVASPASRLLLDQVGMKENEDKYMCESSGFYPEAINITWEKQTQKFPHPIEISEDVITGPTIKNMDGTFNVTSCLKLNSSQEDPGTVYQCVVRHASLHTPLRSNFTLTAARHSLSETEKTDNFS
# Experiment: ELISA, B7H6 coated, HRP anti-human IgG detection
# Protocol: Human B7H6 (ACRO biosystems, cat. No. B76-H52H8) and human CD3 antigen (ACRO biosystems, cat. No. CDD-H52W1) were diluted to 2 μg/mL with coating buffer (35 mM NaHCO₃, 15 mM Na₂CO₃, pH 9.6), respectively. 100 μL of the diluted solution was added to each well of an ELISA plate at 4° C. overnight, and then washes with PBST (0.05% Tween 20-PBS, pH 7.2) 3 times. 300 μL of blocking buffer (1% BSA, 0.05% Tween20-PBS, pH 7.2) was added to the plate and allowed to stand at room temperature for 2 h, followed by washing with PBST three times. The corresponding bispecific antibody was added to each well and incubated at room temperature for 1 h, followed by washing with PBST three times. 100 μL of HRP-rabbit anti human IgG secondary antibody (Boster, cat. No. BA1070) diluted in blocking buffer was added to each well and incubated for 1 h at room temperature, followed by washing with PBST three times. TMB was added into each well. The plate was kept away from light at room temperature for 2-5 min, the reaction was stopped by adding 2 M sulfuric acid in each well, and finally OD450 values were read with microplate reader.
row,Binder,binding result
1,B1,binds
2,B2,binds
3,B3,binds
4,B4,binds
5,B5,binds
6,B6,binds
7,B7,binds
8,B8,binds
